In data set [1] the target is T1, Prostate specific antigen (PSA) (UniProt P07288 25-261). Put plainly: electrochemical impedance spectroscopy (immobilized DNA); Rct unchanged with PSA; 0.1 M PBS pH 7.4, with or without 5 mM [Fe(CN)6]3-/4-; PSA 0-11.06 ng/mL; temperature not stated. To be noted: protein: commercial.
The target in data set [2] is T1, Prostate specific antigen (PSA). Put plainly: electrochemical impedance spectroscopy, CV and DPV (immobilized aptamer); 5 mM [Fe(CN)6]3-/4-; also EIS without redox probe; LOD 0.14 ng/mL; 0.1 M PBS pH 7.4, with or without 5 mM [Fe(CN)6]3-/4-; PSA 0-11.06 ng/mL; temperature not stated. To be noted: protein: commercial.

The source of these data is paper PMC5792442, “A comparative Study of Aptasensor Vs Immunosensor for Label-Free PSA Cancer Detection on GQDs-AuNRs Modified Screen-Printed Electrodes”.

T1 sequence (P07288 25-261): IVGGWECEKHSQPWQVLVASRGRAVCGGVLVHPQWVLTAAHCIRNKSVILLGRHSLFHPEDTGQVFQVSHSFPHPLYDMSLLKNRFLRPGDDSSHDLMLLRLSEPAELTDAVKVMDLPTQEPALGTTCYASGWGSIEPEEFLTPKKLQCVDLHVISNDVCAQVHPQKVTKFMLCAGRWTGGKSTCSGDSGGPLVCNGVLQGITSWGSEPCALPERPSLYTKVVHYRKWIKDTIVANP

As for TTTTGCCATCGGGGCCATGTTCAA (ssDNA) [random single strand DNA], the binding result in data set [1] was “no binding”.
As to ATTAAAGCTCGCCATCAAATAGC (ssDNA) [PSA-Aptamer], the binding result in data set [2] is given as “binds”.
